# The supplement of paper PMC12042874
# ± gives the uncertainty stated by the source.
# Assay: amyloid nucleation score (Sup35N fusion, yeast selection) (log enrichment); library NNK2; higher = more nucleation; inactive = no reads after selection
# In short: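 On medium lacking adenine and uracil, psi-negative yeast expressing peptides of 20 random codons fused to Sup35N were grown 7 days at 30°C after a 24-hour induction with 100 μM copper sulfate. Illumina sequencing of input and output plasmid inserts gave the reads, and sequences under 100 input reads were excluded. The nucleation score is the DiMSum log enrichment of output over input reads, centred on the mode score of non-aggregating sequences.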
row,Substance,amyloid nucleation score
1,SAYVVLIEFVLNKVVGTLLR,-0.634 ± 0.63
2,SCCFSMGGPVNVVQSSRMVR,-0.781 ± 0.55
3,SCCNL,-0.11 ± 0.19
4,SCGYFITKKEH,-0.679 ± 0.3
5,SCHWNVTRGRWNTKHNLRPK,1.06 ± 0.4
6,SCIMLIVPMINSAYAVLLWR,-0.771 ± 0.62
7,SCKKCMSYVVVVNIVRHICM,1.86 ± 0.11
8,SCLLVEQLP,0.864 ± 0.26
9,SCPNYTVSIWIYMPFFSWLR,2.81 ± 0.08
10,SCRGDKQERKPIHYVRHIWY,-0.798 ± 0.24
11,SCRLLDSFDPMSRGKSSQRR,-0.003 ± 1.1
12,SCSERLSMWLRED,4.62 ± 0.047
13,SCSHYTVECKGAWGFCACGH,0.085 ± 0.36
14,SCSIKSSTVVEDPF,0.049 ± 0.76
15,SCSSCLL,-0.183 ± 1
16,SCSWCMLVPRGGVGVPKG,0.335 ± 0.22
17,SCTHLDW,inactive
18,SCVINM,1.55 ± 0.11
19,SCWRRMSSITPG,1.68 ± 0.47
20,SDCGHAEVVCAGNHGGTSYP,0.326 ± 0.27
21,SDCRWNCVSMEWIDPTHEDK,-0.518 ± 0.2
22,SDFIMTLSERVVGASLNSCD,inactive
23,SDGEISGEGY,-0.368 ± 1.1
24,SDICRREMHNTAIFLALF,1.56 ± 0.1
25,SDLGCLRYRTKGGAVGVDGV,0.653 ± 0.21

row,Substance,amyloid nucleation score
1,SDMLLVISWFSFVKNK,4.05 ± 0.073
2,SDRMELWKNESRLYIGMAVR,0.451 ± 0.49
3,SESDSTLRSTIDSRLCGS,-0.53 ± 0.55
4,SESHICGV,-1.62 ± 0.62
5,SESVL,-1 ± 0.76
6,SEVLNVFA,-1.14 ± 0.34
7,SFDFLSLLSDRCLVLDVSPN,0.761 ± 0.46
8,SFDGGRDGRLMYIGRMLEEL,-0.067 ± 0.62
9,SFEPFETLEREVPPPLTWPT,1.99 ± 0.2
10,SFFFMKSWSGRPPIQLGV,-0.113 ± 0.65
11,SFFFPWCVTGLRVSHTTAKF,-0.237 ± 0.63
12,SFFNRESGIWWRGSSWFVLV,-0.711 ± 0.48
13,SFFVRKLIGNSYHN,1.89 ± 0.17
14,SFGKVYFN,0.617 ± 0.53
15,SFHIVKDYNSDMYYFFNELV,inactive
16,SFIRMWKDRLYHRLVALNRV,1 ± 0.48
17,SFITDRADCRQWLLRNNIFA,-0.771 ± 0.64
18,SFKFFTVQF,6.66 ± 0.088
19,SFKRFQ,-0.347 ± 1.1
20,SFKSDSFTDYYLIDLAITRG,-0.046 ± 1
21,SFMGEK,-0.453 ± 0.74
22,SFNEWLSR,-0.391 ± 0.55
23,SFNVF,-0.094 ± 0.6
24,SFPLSADEFNCSI,-0.314 ± 0.55
25,SFPVWPVMYGGNCFSCFSLG,9.094 ± 0.063

row,Substance,amyloid nucleation score
1,SFRFMFEVLSVVTYSTRGCA,2.92 ± 0.067
2,SFRKILESWKDAYLYDPALT,0.113 ± 1.1
3,SFSKNALDNRFWGRFSFFFG,1.3 ± 0.34
4,SFVLSSHKA,0.175 ± 0.61
5,SFVNFCRLRASLCAVAISTT,inactive
6,SFYWYRCVDIADSTSKYDGF,inactive
7,SGCWIGRFLSSGVSMKVHVS,1.23 ± 0.4
8,SGDMCFWFSQTRHGLFKGIL,-0.019 ± 0.37
9,SGFNNISMKQLWWT,inactive
10,SGGHNIVLMI,inactive
11,SGHISYG,0.192 ± 0.56
12,SGIAWSLVNVGLGYHYMQGG,0.178 ± 0.39
13,SGKTMEVIYNEGSCFCGFLT,8.09 ± 0.081
14,SGLCSCTVACVGFVHFDARV,5.38 ± 0.084
15,SGMISRRHAYGAEVELVGSN,1.17 ± 0.43
16,SGPVVQDKVYHRVNYF,-0.369 ± 1.1
17,SGSKGRASVNIIDR,0.131 ± 1
18,SGSMKCPSYRYYCPQNIFCT,6.43 ± 0.08
19,SGSRMFCVRHMIMSGGVLGS,-0.451 ± 0.54
20,SGTALTRAESSTLMFNRNYR,0.106 ± 0.41
21,SGVLHRCEIPVLRACRLLL,0.425 ± 0.37
22,SGVLVCVWTRS,-1.24 ± 0.49
23,SGWQFQSWRVQRMWLVELSC,0.494 ± 0.49
24,SGYMMNFAA,1.24 ± 0.32
25,SGYVIHLVDDKALHTCDRNQ,0.294 ± 0.18

row,Substance,amyloid nucleation score
1,SGYVLNAELNAASLLMCGIG,0.252 ± 0.74
2,SHCCGFLRGGWNRAQFGYRT,3.38 ± 0.049
3,SHCPVRYMVGIS,-1.02 ± 0.78
4,SHCSLEDG,1.22 ± 0.12
5,SHEMGGFHNSNL,-1.56 ± 1
6,SHFRLCGGVWSSGLMCHGCF,1.61 ± 0.55
7,SHGVLRMAKIRSWGFDVTVM,0.02 ± 0.74
8,SHISDVSKD,0.679 ± 0.26
9,SHLPVWTSKNARSRCDP,0.602 ± 0.25
10,SHMIRYRSVDRVHGLFHPQS,-0.232 ± 0.37
11,SHYTMALSRDIGYGDITKSD,-0.675 ± 1.1
12,SICGEVYWWNLG,-0.978 ± 0.28
13,SIFFARLVVEKSMIQLG,0.21 ± 0.41
14,SIGIRIEVLHAYLQTVISNA,-0.639 ± 1
15,SIGTGRAESL,0.359 ± 0.57
16,SIIIVKFLIGWRILWRSLTY,inactive
17,SIKCEFELIDLTSQAPCEGQ,0.611 ± 0.5
18,SILIFTLTCSDRNW,-0.245 ± 0.76
19,SINWAFDYVSVLVGFD,inactive
20,SIPIIETGVWYVNNRVLMN,-1.43 ± 0.54
21,SIRARGLAMRSYSPT,-0.093 ± 0.55
22,SIRLYHYKFALRERKV,5.345 ± 0.053
23,SIRSS,inactive
24,SISRVVTWNRLRVKACRWAG,0.601 ± 0.28
25,SISSGFFWKEAIKGSAVSLW,0.36 ± 0.8

row,Substance,amyloid nucleation score
1,SIVLMCVLMYPPIDVSSWLS,4.415 ± 0.042
2,SIYRFDLTYPNRHHCYNVVI,-0.184 ± 1.1
3,SKAECLMH,-0.547 ± 1.1
4,SKCCASLTQLITTGVLAYRA,0.489 ± 0.49
5,SKCNGFVVALMLVFTSSELD,inactive
6,SKFHIVIWSSAFFGCNCRLA,6.78 ± 0.079
7,SKFYNSYSYFTLFVVVLMFD,-0.936 ± 1.1
8,SKLFESLVTCLIKGLHVVNN,0.479 ± 0.74
9,SKLIVWLTDLASSVSRMLLV,4.09 ± 0.071
10,SKLMQVRRGVLSGYLSESDE,-0.149 ± 0.55
11,SKYKRLYVGTNDIIQLDWSN,3.16 ± 0.068
12,SLCLRRCMKNKSKQMTMVWR,-0.247 ± 0.53
13,SLEFCLVWFSSMRRMCV,0.673 ± 0.48
14,SLFARRMWGGTVKWYNDRTY,-0.632 ± 0.76
15,SLFTYGVISDHMGNMVPWND,-0.352 ± 1.1
16,SLKEESFESVMNVG,3.87 ± 0.059
17,SLKRKGLVHTPCIFRVRCLT,0.554 ± 0.81
18,SLLDWYKSRQSLMGAMLHNC,-1.12 ± 0.44
19,SLLSPHPLD,0.203 ± 0.63
20,SLLYQQDGCNLVVFYQFLV,2.52 ± 0.13
21,SLMKKTAGLFNVYVPSIGSS,0.378 ± 0.37
22,SLNILDCFTCGYMTSDISVA,-0.674 ± 0.32
23,SLPRWTVCVCVQADGYWMWV,7.12 ± 0.084
24,SLQVDRNWGGS,0.105 ± 0.55
25,SLSFCVLEVSTCGCMSGYVG,10.24 ± 0.05

row,Substance,amyloid nucleation score
1,SLSGVV,inactive
2,SLSSGHETVR,3.69 ± 0.15
3,SLSVAWKWGGRSDN,6.213 ± 0.06
4,SLVLLNRSANWIDLLNKQQD,3.62 ± 0.12
5,SLWLSEVVCMDTVHQEIIMA,-0.163 ± 0.42
6,SLYLRSRSRISFMGVGQKEL,3.28 ± 0.11
7,SMFIVHSCSTWLTNNGLNHM,3.19 ± 0.16
8,SMGLSC,inactive
9,SMGMLP,-0.641 ± 1.1
10,SMGSPETC,-0.47 ± 1.1
11,SMGYYDLFELYPNRHGYYGF,inactive
12,SMLEDRYHSALTENRRDWKQ,0.564 ± 0.28
13,SMLGKRIFYRCSRLMHNF,-0.175 ± 0.27
14,SMNSLSIVYLDYASGAWMDL,-0.127 ± 0.49
15,SMNVRTKLDWSTTRVDSGLR,0.662 ± 0.21
16,SMQCPLAAQTDM,-0.301 ± 0.45
17,SMQFFFRS,6.51 ± 0.072
18,SMQFLCYKKLC,-0.565 ± 1.1
19,SMQKG,inactive
20,SMRDEVYIRFFMNRILSVRS,-0.803 ± 1
21,SMSKYAISYKLVVRKKYRSG,1.83 ± 0.11
22,SMTVKDSGFMSIFGFSTVRL,-0.854 ± 0.48
23,SMWWY,-0.505 ± 1.1
24,SMYLCDK,-0.621 ± 0.48
25,SMYSLTVVNLRVRFLVVWGW,0.615 ± 0.5

row,Substance,amyloid nucleation score
1,SNAVLWNTGIFIKKYC,-1.38 ± 0.64
2,SNEHKYFQNIATNVLV,-0.371 ± 0.64
3,SNEPIGTASLHDYVGPRVST,-0.332 ± 0.44
4,SNFLVYS,-0.636 ± 0.61
5,SNHVKCGWICKFSLRIQSVY,0.129 ± 0.65
6,SNSGINHIRCCLYPLFYLIM,2.35 ± 0.13
7,SNSLQFYDLKSCDWGVWRCE,4.768 ± 0.038
8,SNSYGGDTQRY,-0.517 ± 0.33
9,SNVLFLVLHRGRVKAVSRNE,-0.783 ± 1
10,SNVLTVIVCYTKAWINKSFM,inactive
11,SNVWAQ,0.571 ± 0.57
12,SNWFLWHTSTRFMIKENIMY,0.516 ± 0.74
13,SPCLVLL,0.2 ± 0.28
14,SPCMCGYITINSLRPLLTFS,5.797 ± 0.03
15,SPFRTDHVF,-0.311 ± 0.33
16,SPFTTSRDFMHRTPLLCDTC,1.32 ± 0.33
17,SPGIARDLANRILVTIRWVS,1.25 ± 0.32
18,SPGYTMKGFRWWLLSILGAR,inactive
19,SPRLAGVWVH,-0.669 ± 0.63
20,SPSSQSKVISCLRVS,0.611 ± 0.81
21,SPVVADQPWCSI,0.321 ± 0.64
22,SPWGPLLAFTSKTNPIQWMT,-0.196 ± 0.46
23,SQALCDGALYTHFAISSIDR,inactive
